In US20210163945, “APTAMERS FOR TARGETING COAGULATION FACTOR XIII AND USES THEREOF” (Chang Gung University, published 2021):

Legend:
[1] = target: Bovine serum albumin (BSA) (Bos taurus, UniProt P02769 P02769:25-607); assay: dot blot, no binding under native or denatured condition; conditions: label: FAM or biotin
[2] = target: T1, Coagulation factor XIII (FXIII) (UniProt P00488;P05160 P00488:2-732,P05160:21-661); assay: dot blot, binds under native and denatured conditions; PBS/Tween 20, BSA block; conditions: chain copies: 2; label: FAM or biotin
T1 sequence 1: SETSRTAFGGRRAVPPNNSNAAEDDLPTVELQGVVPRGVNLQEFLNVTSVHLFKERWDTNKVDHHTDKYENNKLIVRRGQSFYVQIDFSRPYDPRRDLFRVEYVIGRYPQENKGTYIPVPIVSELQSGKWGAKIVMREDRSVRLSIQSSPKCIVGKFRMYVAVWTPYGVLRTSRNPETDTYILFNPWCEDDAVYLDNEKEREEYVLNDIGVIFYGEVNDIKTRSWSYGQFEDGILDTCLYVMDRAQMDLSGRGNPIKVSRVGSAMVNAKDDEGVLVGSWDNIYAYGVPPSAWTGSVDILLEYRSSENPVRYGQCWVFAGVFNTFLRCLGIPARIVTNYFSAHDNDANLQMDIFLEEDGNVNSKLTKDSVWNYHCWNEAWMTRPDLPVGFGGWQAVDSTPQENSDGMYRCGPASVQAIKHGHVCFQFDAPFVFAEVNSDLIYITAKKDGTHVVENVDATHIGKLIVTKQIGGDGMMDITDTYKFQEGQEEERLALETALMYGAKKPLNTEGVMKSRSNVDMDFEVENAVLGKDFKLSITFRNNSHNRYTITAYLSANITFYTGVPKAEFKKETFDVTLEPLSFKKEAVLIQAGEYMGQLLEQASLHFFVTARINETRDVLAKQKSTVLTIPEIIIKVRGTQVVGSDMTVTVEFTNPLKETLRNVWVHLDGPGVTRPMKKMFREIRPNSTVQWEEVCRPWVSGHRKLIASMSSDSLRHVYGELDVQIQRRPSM
T1 sequence 2: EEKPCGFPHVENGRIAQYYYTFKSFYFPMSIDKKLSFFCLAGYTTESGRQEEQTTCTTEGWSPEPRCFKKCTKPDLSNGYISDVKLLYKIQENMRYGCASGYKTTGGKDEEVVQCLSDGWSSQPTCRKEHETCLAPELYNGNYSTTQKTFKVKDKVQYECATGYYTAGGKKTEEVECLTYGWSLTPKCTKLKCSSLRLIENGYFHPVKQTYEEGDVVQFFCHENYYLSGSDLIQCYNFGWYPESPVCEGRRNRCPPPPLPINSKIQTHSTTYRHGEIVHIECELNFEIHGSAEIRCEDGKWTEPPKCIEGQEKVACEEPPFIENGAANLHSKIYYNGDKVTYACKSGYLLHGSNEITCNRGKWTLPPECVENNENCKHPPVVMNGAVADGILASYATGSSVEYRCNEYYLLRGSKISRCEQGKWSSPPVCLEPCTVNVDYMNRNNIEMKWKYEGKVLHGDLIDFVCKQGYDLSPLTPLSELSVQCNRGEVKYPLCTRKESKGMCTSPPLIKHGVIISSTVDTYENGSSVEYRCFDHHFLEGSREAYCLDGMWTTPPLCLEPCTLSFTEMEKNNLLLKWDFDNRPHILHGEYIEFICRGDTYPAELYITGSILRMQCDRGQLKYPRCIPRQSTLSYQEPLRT
Description: Purified FXIII was blotted on a nitrocellulose (NC) membrane, and air-dried for 1 hr. Then a mixture of BSA, PBS, and Polyoxyethylene(20)sorbitan monolaurate (TWEEN™ 20) was added to the NC membrane and incubated for 1 hr, and following biotin-conjugated aptamers were added to the NC membrane and incubated for another 1 hr. The NC membrane was washed thrice using a washing buffer of PBS and Tween 20, and horseradish peroxidase (HRP)-conjugated streptavidin was added to the NC membrane and incubated for 1 hr. For coloration, a substrate of HRP was added to the NC membrane after washing, and the images of the NC membrane were acquired by a X-ray film processor.

Chain of Bovine serum albumin (BSA) (P02769 25-607, one chain of several): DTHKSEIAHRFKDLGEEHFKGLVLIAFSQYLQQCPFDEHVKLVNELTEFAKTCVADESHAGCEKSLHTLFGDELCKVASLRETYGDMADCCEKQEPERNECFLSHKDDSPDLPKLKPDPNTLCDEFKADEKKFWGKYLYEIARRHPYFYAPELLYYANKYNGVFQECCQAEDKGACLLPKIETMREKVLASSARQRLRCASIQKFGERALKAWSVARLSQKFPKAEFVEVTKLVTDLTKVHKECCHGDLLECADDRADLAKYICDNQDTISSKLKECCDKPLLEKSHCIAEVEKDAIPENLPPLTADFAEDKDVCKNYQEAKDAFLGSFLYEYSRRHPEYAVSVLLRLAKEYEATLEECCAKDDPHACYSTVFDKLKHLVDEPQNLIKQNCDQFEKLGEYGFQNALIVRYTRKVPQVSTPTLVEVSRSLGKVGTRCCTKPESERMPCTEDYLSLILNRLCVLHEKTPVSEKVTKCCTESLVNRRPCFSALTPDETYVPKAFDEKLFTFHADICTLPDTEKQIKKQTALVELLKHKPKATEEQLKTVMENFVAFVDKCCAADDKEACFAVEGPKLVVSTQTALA

CGCAGCATCATTCGGGTCGGGAAGGGGTGTACGGGGCTGCG (ssDNA) [FAT2]: no binding [1]; binds [2].
